Patent publication US20110117113A1, “IMMUNOGLOBULIN SINGLE VARIABLE DOMAIN DIRECTED AGAINST HUMAN CXCR4 AND OTHER CELL ASSOCIATED PROTEINS AND METHODS TO GENERATE THEM” (priority 2009, published 2011)
Numbering of substitutions follows the chain as printed.

Assays:
Test in all cases: immunofluorescence on HEK-293T expressing the clone, normalised to wild type
[1] = biological target: T1, CXCR4 mutation library clone 913 (F189S, K308R) (human, UniProt P61073 1-352)
T1 chain: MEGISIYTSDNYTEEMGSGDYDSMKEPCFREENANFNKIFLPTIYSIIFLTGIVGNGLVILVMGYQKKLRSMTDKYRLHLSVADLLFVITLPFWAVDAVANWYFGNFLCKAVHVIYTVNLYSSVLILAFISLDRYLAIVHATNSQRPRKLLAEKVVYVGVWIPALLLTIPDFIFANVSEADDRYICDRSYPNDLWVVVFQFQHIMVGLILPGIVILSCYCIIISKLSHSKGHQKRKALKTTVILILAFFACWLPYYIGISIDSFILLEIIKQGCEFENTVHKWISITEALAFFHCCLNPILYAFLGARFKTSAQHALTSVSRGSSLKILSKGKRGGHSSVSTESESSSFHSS

[2] = biological target: CXCR4 mutation library clone 2184 (P191T) (human, UniProt P61073 1-352)
[3] = biological target: T2, CXCR4 mutation library clone 3728 (D187A, Y157C) (human, UniProt P61073 1-352)
T2 chain: T1 chain with Y157C, D187A, S189F, R308K

[4] = biological target: T3, CXCR4 mutation library clone 709 (P163L, S178I) (human, UniProt P61073 1-352)
T3 chain: T1 chain with P163L, S178I, S189F, R308K

[5] = biological target: CXCR4 mutation library clone 1129 (F189V) (human, UniProt P61073 1-352)
[6] = biological target: CXCR4 mutation library clone 3622 (E277G) (human, UniProt P61073 1-352)
[7] = biological target: CXCR4 mutation library clone 2396 (S178C) (human, UniProt P61073 1-352)
[8] = biological target: CXCR4 mutation library clone 2084 (D187V) (human, UniProt P61073 1-352)
[9] = biological target: T4, CXCR4 mutation library clone 414 (C218R, E179V, S351T) (human, UniProt P61073 1-352)
T4 chain: T1 chain with E179V, S189F, C218R, R308K, S351T

[10] = biological target: T5, CXCR4 mutation library clone 2834 (E179V, G258E) (human, UniProt P61073 1-352)
T5 chain: T1 chain with E179V, S189F, G258E, R308K

[11] = biological target: CXCR4 mutation library clone 3630 (W195R) (human, UniProt P61073 1-352)

B1: Nanobody 238D4 (VHH)
VHH: EVQLMESGGGLVQAGGSLRLSCAASGRTFNNYAMGWFRRAPGKEREFVAAITRSGVRSGVSAIYGDSVKDRFTISRDNAKNTLYLQMNSLKPEDTAVYTCAASAIGSGALRRFEYDYSGQGTQVTVSS
B1 was tested. Which “% immunofluorescence” value [1] did it give?
The value was -16.9%.

And the “% immunofluorescence” value [2]?
Its value is 124%.

What about the “% immunofluorescence” value [3] of the same binder?
Its value is -16.4%.

What about the “% immunofluorescence” value [4] of the same binder?
Its value is 30%.

And the “% immunofluorescence” value [5]?
Its value is 5.2%.

And the “% immunofluorescence” value [6]?
The value was 52.5%.

What about the “% immunofluorescence” value [7] of the same binder?
Its value is 28.2%.

And the “% immunofluorescence” value [8]?
Its value is -8%.

What about the “% immunofluorescence” value [9] of the same binder?
The value was 8%.

And the “% immunofluorescence” value [10]?
Its value is 19.5%.

And the “% immunofluorescence” value [11]?
Its value is 58.8%.
